Each block holds one binder with its values, some of them ahead of it.
Legend:
[1] = biological target: T1, non-farnesylated GBP1 (guanylate binding protein 1) (human), P32455; test: dynamic light scattering; settings: remark: other sources report otherwise
T1 chain: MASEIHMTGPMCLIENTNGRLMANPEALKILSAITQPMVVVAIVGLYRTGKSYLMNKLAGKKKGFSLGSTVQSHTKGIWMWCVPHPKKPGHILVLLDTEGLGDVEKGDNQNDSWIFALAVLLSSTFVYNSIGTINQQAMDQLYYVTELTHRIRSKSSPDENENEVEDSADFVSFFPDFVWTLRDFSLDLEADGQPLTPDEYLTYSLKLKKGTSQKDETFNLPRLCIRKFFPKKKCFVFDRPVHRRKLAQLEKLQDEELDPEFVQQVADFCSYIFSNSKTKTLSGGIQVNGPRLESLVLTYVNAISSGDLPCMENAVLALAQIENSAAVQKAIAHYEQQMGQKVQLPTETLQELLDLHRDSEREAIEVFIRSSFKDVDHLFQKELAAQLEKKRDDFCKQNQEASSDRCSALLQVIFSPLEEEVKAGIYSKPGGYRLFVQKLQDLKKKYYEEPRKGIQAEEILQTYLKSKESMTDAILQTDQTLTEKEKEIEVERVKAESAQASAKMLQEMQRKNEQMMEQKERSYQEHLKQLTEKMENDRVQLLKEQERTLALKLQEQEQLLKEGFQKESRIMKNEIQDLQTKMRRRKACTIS

[2] = biological target: T2, non-geranylgeranylated GBP5 (guanylate binding protein 5) (human), Q96PP8; test: dynamic light scattering; settings: remark: other sources report otherwise
T2 chain: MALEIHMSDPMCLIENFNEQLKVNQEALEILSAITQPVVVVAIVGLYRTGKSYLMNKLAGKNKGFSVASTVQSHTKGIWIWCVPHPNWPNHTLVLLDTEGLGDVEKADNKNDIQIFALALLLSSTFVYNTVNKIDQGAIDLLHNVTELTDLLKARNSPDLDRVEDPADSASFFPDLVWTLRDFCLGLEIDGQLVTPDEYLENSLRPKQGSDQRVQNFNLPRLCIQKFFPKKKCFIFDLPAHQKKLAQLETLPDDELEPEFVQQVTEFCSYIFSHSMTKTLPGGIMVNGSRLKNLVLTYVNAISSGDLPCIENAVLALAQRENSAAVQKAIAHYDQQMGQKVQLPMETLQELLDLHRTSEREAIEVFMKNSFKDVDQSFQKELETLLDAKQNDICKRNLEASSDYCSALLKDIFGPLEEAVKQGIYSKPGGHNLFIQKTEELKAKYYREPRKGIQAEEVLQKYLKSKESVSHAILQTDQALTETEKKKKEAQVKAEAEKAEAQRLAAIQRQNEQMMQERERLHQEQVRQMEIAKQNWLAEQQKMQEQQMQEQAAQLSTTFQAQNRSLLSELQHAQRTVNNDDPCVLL

[3] = biological target: T3, farnesylated GBP1 (guanylate binding protein 1) (human, UniProt P32455 1-592, farnesylated in vitro (C-terminal farnesyl moiety)); test: absorbance-based light scattering
T3 sequence: T1 chain

[4] = biological target: T4, geranylgeranylated GBP5 (guanylate binding protein 5) (human), Q96PP8; test: dynamic light scattering; settings: remark: other sources report otherwise
T4 chain: T2 chain

dynamic light scattering = biological target: the molecule itself; test: dynamic light scattering

- stoichiometry N [1]: 2
B1: non-farnesylated GBP1 (guanylate binding protein 1), P32455 1-592 (natural protein)
chain: T1 chain

- stoichiometry N [2]: 2
B2: non-geranylgeranylated GBP5 (guanylate binding protein 5), Q96PP8 1-586 (natural protein)
chain: T2 chain

- binding result [3]: binds
B3: geranylgeranylated GBP5 (guanylate binding protein 5) (natural protein, human, UniProt Q96PP8 1-586, looked up)
chain: T2 chain
modifications: geranylgeranylated in vitro (C-terminal geranylgeranyl moiety)

- stoichiometry N [4]: 2
B4: geranylgeranylated GBP5 (guanylate binding protein 5), Q96PP8 1-586 (natural protein)
chain: T2 chain
modifications: here or on the partner: geranylgeranylated in vitro (C-terminal geranylgeranyl moiety); geranylgeranylated in vitro (C-terminal geranylgeranyl moiety)

- binding result [3]: binds
B5: geranylgeranylated GBP2 (guanylate binding protein 2) (natural protein, human, UniProt P32456 1-591, looked up)
chain: MAPEINLPGPMSLIDNTKGQLVVNPEALKILSAITQPVVVVAIVGLYRTGKSYLMNKLAGKKNGFSLGSTVKSHTKGIWMWCVPHPKKPEHTLVLLDTEGLGDIEKGDNENDSWIFALAILLSSTFVYNSMGTINQQAMDQLHYVTELTDRIKANSSPGNNSVDDSADFVSFFPAFVWTLRDFTLELEVDGEPITADDYLELSLKLRKGTDKKSKSFNDPRLCIRKFFPKRKCFVFDWPAPKKYLAHLEQLKEEELNPDFIEQVAEFCSYILSHSNVKTLSGGIPVNGPRLESLVLTYVNAISSGDLPCMENAVLALAQIENSAAVEKAIAHYEQQMGQKVQLPTETLQELLDLHRDSEREAIEVFMKNSFKDVDQMFQRKLGAQLEARRDDFCKQNSKASSDCCMALLQDIFGPLEEDVKQGTFSKPGGYRLFTQKLQELKNKYYQVPRKGIQAKEVLKKYLESKEDVADALLQTDQSLSEKEKAIEVERIKAESAEAAKKMLEEIQKKNEEMMEQKEKSYQEHVKQLTEKMERDRAQLMAEQEKTLALKLQEQERLLKEGFENESKRLQKDIWDIQMRSKSLEPICNIL
modifications: geranylgeranylated in vitro (C-terminal geranylgeranyl moiety)
- binding result (dynamic light scattering): binds

B6: non-geranylgeranylated GBP2 (guanylate binding protein 2) (natural protein, human, UniProt P32456 1-591, looked up)
chain: B5 chain
- stoichiometry N (dynamic light scattering): 2

Reference: doi:10.1101/2022.10.05.511023 (bioRxiv, 2022)
